Reference: the RNAGym collection of RNA variant scans (doi:10.1073/pnas.2313332121)

B1: TPR t1 (parent)
chain: GACCAAUCUGCCCUCAGAGCUCGAGAACAUCUUCGGAUGCAGAGGAGGCAGGCUUCGGUGGCGCGAUAGCGCCAACGUCCUCAACCUCCAAUGCAUCCCACCACAUGAUGAUGCCUGAAGAGCCUUGGUUUUUUG

Variants of: B1
Experiment: polymerase ribozyme fitness, log enrichment relative to wild type (log ratio); higher = more active; in vitro selection for triplet polymerase activity
Method in brief: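 To select mutant libraries of each subunit of a heterodimeric triplet polymerase ribozyme, built by PCR and transcribed, each was annealed with a biotinylated primer, partner subunit and triplets, then incubated frozen at −7 °C. Extended constructs were gel-excised, captured on streptavidin beads and amplified by RT-PCR, in one round carried out in triplicate. Illumina sequencing of input and output libraries kept genotypes with ≥10 input reads and ≥1 read per output. Fitness is the base-2 logarithm of genotype enrichment relative to wild-type enrichment, from inverse-variance-weighted replicate averages.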

| Variant | polymerase ribozyme fitness (log ratio) |
| --- | --- |
| G44C C53U C56U C115U G117U G135A | -3.91 |
| G45U U96G | -1.78 |
| G44A A46G G52A C123A | -1.71 |
| G45U C115A G128U | -4.73 |
| G45C C49G U59G C89U | -3.44 |
| G45A A46U | -1.72 |
| G44C A50G A111U C123A G135U | -5.29 |
| G45A A103C U106A C115G | -5.5 |
| G45A C72A G117U | -2.7 |
| G44A G47U U78C G110A | -3.74 |
| G45U C53U | -2.81 |
| G44U G93U G117A | -3.24 |
| G45C G58A | -0.146 |
| A43U G117U | -3.35 |
| G45A U54A G61C | -0.932 |
| A43U G48U G120U | -2.2 |
| G45C C56A C98U | -3.15 |
| G44C U55C | -1.02 |
| A43G U78A C88U U109G | -7.02 |
| A46C C73A | -1.64 |
| G45C U133G G135U | -1.52 |
| G44A G77A U106C G117A | -3.03 |
| G45A A50G G93C | -1.62 |
| G44C C72A | -0.169 |

| Variant | polymerase ribozyme fitness (log ratio) |
| --- | --- |
| G44C C114A | -2.01 |
| G45A C70G C85A | -4.9 |
| A46C C72U A75U C123U | 0.328 |
| G44C C70G | -3.8 |
| G44C G61C A100C U106A | -4.28 |
| A46C C56G | -1.37 |
| G44U G61A C99U | -4.01 |
| G45C C49U C56G A121C | -0.675 |
| A43U G44A A68U C70A C115A C124A U125C U132A | -6.95 |
| G44C G71U A108U G110C U125A | -6.18 |
| G44U C62A A90G | -2.16 |
| G45U C115U | -2.6 |
| G44A C56U C72U G120C U129C | -2.55 |
| G45A C76U C86G | -3.23 |
| G44A G60U G117C | -5.36 |
| G44U C98U U125G G127U | -3.43 |
| G44A C49A C73U U116C | -2.91 |
| G45U G71A G93A | -2.09 |
| G44A A50C G63A C85A | -4.52 |
| G45A U87C C97A | -3.81 |
| G44A G60A | -0.624 |
| G45U C72U U78G C101A G122A | -2.81 |
| G45A A50C | -1.09 |
| G45U G61U G63C A91C A95G G110C | -4.25 |

| Variant | polymerase ribozyme fitness (log ratio) |
| --- | --- |
| A43U C62U G77A U126A | -5.02 |
| G45C G51U G71C | -4.44 |
| G45C C82A C101U | -2.68 |
| A43U U55A C72A G127A | -2.75 |
| A46C C56A C85G | -5.4 |
| G45U U130G | -2.66 |
| G45U C62U G107U U116C | -5.58 |
| A43U C104U | -0.812 |
| A43U C49G | -3.61 |
| G44C C88G | -2.18 |
| A43U C115U | -1.87 |
| G45U G52U | -2.65 |
| G45U U78C | -1.46 |
| G44A C101A U109A | -5.41 |
| G45C G48C C53G G107A A121G | -5.84 |
| G45U C73A A95U | -1.21 |
| G44C A46C U54A C88G C97U G113C | -3.49 |
| G44U G63A U78A G117C | -6.55 |
| G44A G122A G128C | -3.84 |
| G45U U59G A83G C115U | -5.27 |
| G44A G71A | -2.54 |
| G44C A74U | -1.2 |
| A46C C56A G69U | -1.31 |
| A43U C56G G63A | -5.13 |

| Variant | polymerase ribozyme fitness (log ratio) |
| --- | --- |
| G44C A84U | -1.11 |
| G44C A84C | -0.969 |
| A43U U132A | -1.08 |
| G45C C99U | -4.05 |
| G44U C97G G113A | -5.15 |
| G44A A111C U131G | -2.35 |
| G44C G47C C49U C97A C123U | -6.09 |
| G44U C82U C89A C124A | 1.91 |
| A43U G44A G61C A84C A90U C102U C123U | -4.59 |
| G44C C53A C88U A100U | -0.527 |
| G45U C49A U59C C97G | -5.1 |
| G44U A46U C70U | -3.55 |
| G45A U59A C64U G128U | -2.82 |
| A43U A75U U126G | -3.5 |
| G44U C79G A91C C115A | -5.13 |
| G44A G52U G63U U87A | -5.6 |
| G45A G61U U130G | -0.472 |
| G44U G61U A111U | -3.66 |
| G44A C86A C89U C115G C123A | -2.79 |
| G45C G48C | -2.05 |
| G44C A91G | -1.82 |
| G44C G52A G127A | -3.02 |
| G45A A111C | -0.541 |
| G44A A50G C73U C102A C115G | -5.62 |

| Variant | polymerase ribozyme fitness (log ratio) |
| --- | --- |
| G44A G60C C124A | 0.703 |
| G45C U109C | -4.66 |
| G45A A46C C49U C101A U112G U131A | -5.02 |
| A43U C99A C101G G110A | -7.09 |
| G44A A111G | -0.69 |
| G45U G61A C62U C79A | -2.55 |
| G45U C72A U81C A84C C104U G110U U131C | -4.32 |
| G45A A50G G52A G61U U131G | -3.62 |
| G45U G61U G117U C123A | -2.94 |
| G45A C115G G127C | -4.31 |
| G45C G71A C73U C86A U109A | -6.99 |
| A43U G45C C49U G120A | -3.19 |
| A43U U87G A91C A95G A118G | -1.27 |
| G45C A66U C79G C82U | -3.83 |
| G44C G57U G63U | -2.08 |
| G44U C94G | -3.91 |
| G44U C94A | -2.53 |
| A43U A46G C62G U106A | -5.98 |
| A43U G60C C82G | -4.23 |
| G44U A95C | -2.44 |
| G44C C53G | -1.05 |
| G45A G69U U78C U112C U129A | 0.415 |
| G45U G47A G63U C82G G93U G117C A119G | -7.49 |
| G44U C49A G110A | -3.22 |

| Variant | polymerase ribozyme fitness (log ratio) |
| --- | --- |
| G45C G65U G71A A74G | -5.88 |
| A43U A74C | -1.55 |
| G45A C53U | -1.11 |
| G45U G52A C115U G135U | -4.62 |
| A46C G48U C70A G113A | -3.12 |
| G44C U54A C82U C114G | -4.01 |
| G45A G52C C72A C123G | 0.812 |
| G44U A84U A118G | -2.17 |
| G45A G63C C82U | -0.994 |
| G44U C98U | -2.19 |
| A46C C76A | -0.908 |
| A43U G45C C49U G61U G120A | -1.99 |
| G44U C70A C73U | -2.95 |
| G45A A74G C115G G127C | -4.14 |
| G44C C86G | -1.54 |
| G44U U92A | -3.67 |
| A46C C49U A111U U133G | -5.19 |
| G45U U54G G77C C123G | 0.415 |
| G45U G93U G120A | -0.614 |
| G44A U78C | -1.33 |
| G44A C53G G63U C102A A105G G117C | -7.23 |
| G44U G52A | -0.705 |
| A43G U54G C89G C94G | -3.3 |
| A43U C102A | -4.93 |

| Variant | polymerase ribozyme fitness (log ratio) |
| --- | --- |
| G45A C101A | -1.74 |
| G45C G58A A121C | 0.614 |
| G45U G69U | -0.706 |
| G45U G63U | -2.05 |
| G45U G63C | -2.21 |
| G45A A46G A50C C89A | -3.72 |
| G44C G61A A95U G110A | -1.72 |
| G44C G61C | -3.07 |
| G45U U55C | -1.88 |
| G45U A100C A111G A121G U125C | -1.08 |
| G45U A46G G69A U106A | -3.18 |
| A43U G63A A95G G122U | -4.37 |
| G45U C72G A91C | -2.3 |
| G45A C102U G120C | -1.47 |
| G44C C62G U132A | -2.39 |
| G45A G63C | -0.827 |
| A43U A50C G77A U126C | -3.5 |
| G45U C64U U96A G110A G120C | -4.67 |
| G44A C72U G93U C97U U131A | -2.85 |
| G44U A84C A91C | -1.65 |
| G45U G120A | -0.795 |
| G45U G120C | -0.784 |
| G45U C98A | -6.01 |
